B1: SH3 and multiple ankyrin repeat domains protein 3 (Homo sapiens), Q9BYB0-1 (parent)
chain: MQLSRAAAAAAAAPAEPPEPLSPAPAPAPAPPGPLPRSAADGAPAGGKGGPGRRAESPGAPFPGASGPGPGPGAGMDGPGASAVVVRVGIPDLQQTKCLRLDPAAPVWAAKQRVLCALNHSLQDALNYGLFQPPSRGRAGKFLDEERLLQEYPPNLDTPLPYLEFRYKRRVYAQNLIDDKQFAKLHTKANLKKFMDYVQLHSTDKVARLLDKGLDPNFHDPDSGECPLSLAAQLDNATDLLKVLKNGGAHLDFRTRDGLTAVHCATRQRNAAALTTLLDLGASPDYKDSRGLTPLYHSALGGGDALCCELLLHDHAQLGITDENGWQEIHQACRFGHVQHLEHLLFYGADMGAQNASGNTALHICALYNQESCARVLLFRGANRDVRNYNSQTAFQVAIIAGNFELAEVIKTHKDSDVVPFRETPSYAKRRRLAGPSGLASPRPLQRSASDINLKGEAQPAASPGPSLRSLPHQLLLQRLQEEKDRDRDADQESNISGPLAGRAGQSKISPSGPGGPGPAPGPGPAPPAPPAPPPRGPKRKLYSAVPGRKFIAVKAHSPQGEGEIPLHRGEAVKVLSIGEGGFWEGTVKGRTGWFPADCVEEVQMRQHDTRPETREDRTKRLFRHYTVGSYDSLTSHSDYVIDDKVAVLQKRDHEGFGFVLRGAKAETPIEEFTPTPAFPALQYLESVDVEGVAWRAGLRTGDFLIEVNGVNVVKVGHKQVVALIRQGGNRLVMKVVSVTRKPEEDGARRRAPPPPKRAPSTTLTLRSKSMTAELEELASIRRRKGEKLDEMLAAAAEPTLRPDIADADSRAATVKQRPTSRRITPAEISSLFERQGLPGPEKLPGSLRKGIPRTKSVGEDEKLASLLEGRFPRSTSMQDPVREGRGIPPPPQTAPPPPPAPYYFDSGPPPAFSPPPPPGRAYDTVRSSFKPGLEARLGAGAAGLYEPGAALGPLPYPERQKRARSMIILQDSAPESGDAPRPPPAATPPERPKRRPRPPGPDSPYANLGAFSASLFAPSKPQRRKSPLVKQLQVEDAQERAALAVGSPGPGGGSFAREPSPTHRGPRPGGLDYGAGDGPGLAFGGPGPAKDRRLEERRRSTVFLSVGAIEGSAPGADLPSLQPSRSIDERLLGTGPTAGRDLLLPSPVSALKPLVSGPSLGPSGSTFIHPLTGKPLDPSSPLALALAARERALASQAPSRSPTPVHSPDADRPGPLFVDVQARDPERGSLASPAFSPRSPAWIPVPARREAEKVPREERKSPEDKKSMILSVLDTSLQRPAGLIVVHATSNGQEPSRLGGAEEERPGTPELAPAPMQSAAVAEPLPSPRAQPPGGTPADAGPGQGSSEEEPELVFAVNLPPAQLSSSDEETREELARIGLVPPPEEFANGVLLATPLAGPGPSPTTVPSPASGKPSSEPPPAPESAADSGVEEADTRSSSDPHLETTSTISTVSSMSTLSSESGELTDTHTSFADGHTFLLEKPPVPPKPKLKSPLGKGPVTFRDPLLKQSSDSELMAQQHHAASAGLASAAGPARPRYLFQRRSKLWGDPVESRGLPGPEDDKPTVISELSSRLQQLNKDTRSLGEEPVGGLGSLLDPAKKSPIAAARLFSSLGELSSISAQRSPGGPGGGASYSVRPSGRYPVARRAPSPVKPASLERVEGLGAGAGGAGRPFGLTPPTILKSSSLSIPHEPKEVRFVVRSVSARSRSPSPSPLPSPASGPGPGAPGPRRPFQQKPLQLWSKFDVGDWLESIHLGEHRDRFEDHEIEGAHLPALTKDDFVELGVTRVGHRMNIERALRQLDGS
B2: SH3 and multiple ankyrin repeat domains protein 2 (Rattus norvegicus (Rat)), Q9QX74-7 (parent)
chain: MPRSPTSSEDEMAQSFSDYSVGSESDSSKEETIYDTIRATTEKPGGVKMEDLQGNTLVIRVVIQDLQQTKCIRFNPDATVWVAKQRILCTLNQGLKDVLNYGLFQPASNGRDGKFLDEERLLREYPQPMGQGVPSLEFRYKKRVYKQSNLDEKQLARLHTKTNLKKFMDHTQHRSVEKLVKLLDRGLDPNFHDLETGETPLTLAAQLDGSMEVIKALRNGGAHLDFRSRDGMTALHKAARMRNQVALKTLLELGASPDYKDSYGLTPLYHTAIVGGDPYCCELLLHEHASVCCKDENGWHEIHQACRYGHVQHLEHLLFYGADMSAQNASGNTALHICALYNQDSCARVLLFRGGDKELKNYNSQTPFQVAIIAGNFELAEYIKNHKETDIVPFREAPAYSNRRRRPPNTLAAPRVLLRSNSDNNLNAGAPEWAVCSAATSHRSLSPQLLQQTPSKPDGATKSLGSYAPGPRSRSPSLNRLGGAGEDGKRPQPPHWHVGSPFTPGANKDSLSTFEYPGPRRKLYSAVPGRLFVAIKPYQPQVDGEIPLHRGDRVKVLSIGEGGFWEGSARGHIGWFPAECVEEVQCKPRDSQAETRADRSKKLFRHYTVGSYDSFDAASDCIIEDKTVVLQKKDNEGFGFVLRGAKADTPIEEFTPTPAFPALQYLESVDEGGVAWQAGLRTGDFLIEVNNENVVKVGHRQVVNMIRQGGNHLVLKVVTVTRNLDPDDTARKKAPPPPKRAPTTALTLRSKSMTAELEELDKPEEIVPASKPSRTAENVAIESRVATIKQRPTSRCFPAASDVNSVYERQGIAVMTPTVPGSPKGPFLGLPRGTMRRQKSIDSRIFLSGITEEERQFLAPPMLKFTRSLSMPDTSEDIPPPPQSVPPSPPPPSPTTYNCPRSPTPRVYGTIKPAFNQNPVAKVPPATRSDTVATMMREKGMFYRRELDRFSLDSEDVYSRSPAPQAAFRTKRGQMPENPYSEVGKIASKAVYVPAKPARRKGMLVKQSNVEDSPEKTCSIPIPTIIVKEPSTSSSGKSSQGSSMEIDPQATEPGQLRPDDSLTVSSPFAAAIAGAVRDREKRLEARRNSPAFLSTDLGDEDVGLGPPAPRMQPSKFPEEGGFGDEDETEQPLLPTPGAAPRELENHFLGGGEAGAQGEAGGPLSSTSKAKGPESGPAAALKSSSPASPENYVHPLTGRLLDPSSPLALALSARDRAMQESQQGHKGEAPKADLNKPLYIDTKMRPSVESGFPPVTRQNTRGPLRRQETENKYETDLSKDRRADDKKNMLINIVDTAQQKSAGLLMVHTVDIPVAGPPLEEEEDREDGDTKPDHSPSTVPEGVPKTEGALQISAAPEPAAAPGRTIVAAGSVEEAVILPFRIPPPPLASVDLDEDFLFTEPLPPPLEFANSFDIPDDRAASVPALADLVKQKKSDTPQPPSLNSSQPANSTDSKKPAGISNCLPSSFLPPPESFDAVTDSGIEEVDSRSSSDHHLETTSTISTVSSISTLSSEGGESMDTCTVYADGQAFVVDKPPVPPKPKMKPIVHKSNALYQDTLPEEDTDGFVIPPPAPPPPPGSAQAGVAKVIQPRTSKLWGDVTEVKSPILSGPKANVISELNSILQQMNRGKSVKPGEGLELPVGAKSANLAPRSPEVMSTVSGTRSTTVTFTVRPGTSQPITLQSRPPDYESRTSGPRRAPSPVVSPTELSKEILPTPPSAAAASPSPTLSDVFSLPSQSPAGDLFGLNPAGRSRSPSPSILQQPISNKPFTTKPVHLWTKPDVADWLESLNLGEHKETFMDNEIDGSHLPNLQKEDLIDLGVTRVGHRMNIERALKQLLDR

Variants of: B1
Details: with cac1d_human CACNA1D

| effect of a mutation on the interaction | Variant |
| --- | --- |
| with no effect | K555Y |

Variants of: B2
Details: with cac1d_rat Cacna1d

| effect of a mutation on the interaction | Variant |
| --- | --- |
| decreasing interaction strength | S558N |
| with no effect | S558D |

Source: IntAct's records for PubMed 30058071
